Measurements published in US20110300066A1.

Target: CD20 (human) (UniProt P11836)
Test: cell-based or functional assay

CD20 (human), sequence (P11836 whole entry): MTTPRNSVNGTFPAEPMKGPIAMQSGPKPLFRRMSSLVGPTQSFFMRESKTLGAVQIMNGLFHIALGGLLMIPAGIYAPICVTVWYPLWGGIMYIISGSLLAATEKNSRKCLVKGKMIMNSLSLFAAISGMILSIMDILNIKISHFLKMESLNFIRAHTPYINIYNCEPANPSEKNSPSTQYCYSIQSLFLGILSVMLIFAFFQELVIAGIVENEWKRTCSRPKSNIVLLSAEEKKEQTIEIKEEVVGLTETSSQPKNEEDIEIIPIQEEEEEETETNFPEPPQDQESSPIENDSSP

## 20-Rap (antibody)
  in vitro cytotoxicity EC50, Daudi and Ramos cells: 0.0001 µM
  in vitro cytotoxicity EC50, Jeko-1 cells: 20 µM
